Test results: patent US10258642B2, “Dextran sulfate for use in mobilization of cells” (TX MEDIC AB, priority 2013, dated 2019)

Legend:
peripheral blood cells = experiment: combination with G-CSF, hematological analysis; assay type: in vivo, mice; conditions: G-CSF 2×2.5 μg/day s.c. for 2 days
Description: G-CSF (NEUPOGEN®, Amgen, Holland) was supplied as sterile isotonic aqueous solution at 0.3 mg/mL and was diluted in normal saline to a concentration of 50 μg/mL. G-CSF was administered at a dose of 2.5 μg as a single subcutaneous injection, morning and evening Day -2 and Day -1. Dextran sulfate of different average molecular weights were used:
Standard treatment of patients prior to apheresis is based on daily injections of G-CSF for up to one week. Clinically dextran sulfate could be used in combination with G-CSF. In a study in mice 2.5 μg/animal of G-CSF was administered twice daily (8 hrs apart) for 2 days (Broxmeyer 1999).

CFU-GM = conditions: colonies with >50 cells; G-CSF 10 μg/kg daily for five days and/or dextran sulfate 15 mg/kg once on day 5 (Han 1998); cited from earlier work

B1: G-CSF: granulocyte-colony stimulation factor (NEUPOGEN, Amgen) (protein, chains of the INN, looked up)
chain: MTPLGPASSLPQSFLLKCLEQVRKIQGDGAALQEKLCATYKLCHPEELVLLGHSLGIPWAPLSSCPSQALQLAGCLSQLHSGLFLYQGLLQALEGISPELGPTLDTLQLDVADFATTIWQQMEELGMAPALQPTQGAMPAFASAFQRRAGGVLVASHLQSFLEVSYRVLRHLAQP
- number of WBC compared to normal (peripheral blood cells): increased the number of WBC
- CFU-GM level (CFU-GM): 17.1±1.9 colonies
